For 42 molecules, binding signal results are on record in patent US20110281938, “APTAMERS TO TISSUE FACTOR PATHWAY INHIBITOR AND THEIR USE AS BLEEDING DISORDER THERAPEUTICS” (Baxter Healthcare S.A., published 2011).

Where only a bound is given, the exact number is not on record here.

T1 sequence (P10646 29-304): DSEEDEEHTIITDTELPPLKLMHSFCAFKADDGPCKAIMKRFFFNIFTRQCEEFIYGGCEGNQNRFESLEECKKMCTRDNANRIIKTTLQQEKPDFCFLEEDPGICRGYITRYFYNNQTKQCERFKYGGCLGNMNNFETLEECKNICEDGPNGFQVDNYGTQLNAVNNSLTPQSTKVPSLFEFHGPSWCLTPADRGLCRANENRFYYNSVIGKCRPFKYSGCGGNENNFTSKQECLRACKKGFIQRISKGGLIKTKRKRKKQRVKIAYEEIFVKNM

One data set concerns the target T1, TFPI (tissue factor pathway inhibitor, full-length) (Homo sapiens, UniProt P10646 SEQ:1-276). The experiment in a line: competition; meets binding-competition criterion. To be noted: tags: American Diagnostica 4500PC/4900PC, E. coli expressed. The protocol:
(§1) Each molecule was evaluated for binding to tissue factor pathway inhibitor (TFPI) in a binding-competition assay. For these experiments, 10 nM human TFPI (American Diagnostica, Stamford, Conn., catalog #4500PC) was incubated with trace amounts of radiolabeled ARC17480 and 5000 nM, 1666.67 nM, 555.56 nM, 185.19 nM, 61.73 nM, 20.58 nM, 6.86 nM, 2.29 nM, 0.76 nM or 0.25 nM of unlabeled competitor aptamer. ARC17480 was included as a competitor in every experiment as a control. For each molecule, the percentage of radiolabeled ARC17480 bound at each competitor aptamer concentration was used for analysis. The percentage of radiolabeled ARC17480 bound was plotted as a function of aptamer concentration and fit to the equation y=(max/(1+x/IC₅₀))+int, where y=the percentage of radiolabeled ARC17480 bound, x=the concentration of aptamer, max=the maximum radiolabeled ARC17480 bound, and int=the y-intercept, to generate an IC₅₀ value for binding-competition. The IC₅₀ of each aptamer was compared to the IC₅₀ of ARC17480 that was evaluated in the same experiment. A substitution was considered tolerated in the binding-competition assay if the IC₅₀ of that molecule was not more than 5-fold greater than that of ARC17480 evaluated in the same experiment. Tolerated substitutions are indicated in Table 38 as meeting the assay criteria (“yes”) or not meeting the assay criteria (“no”).
As to GGAAUAUACUUGGCUCGUUAGGUGCGUAUUA (mixed, 2'-OMe A/G/U, 2'-deoxy C, 3' idT) [ARC33142], the binding signal is ≤ 5 fold IC50 of ARC17480.

For GAAUAUACUUGGCUCGUUAGGUGCGUAUAUA (mixed, 2'-OMe A/G/U, 2'-deoxy C, 3' idT) [ARC32301], the binding signal was ≤ 5 fold IC50 of ARC17480. As to GGAAAUACUUGGCUCGUUAGGUGCGUAUAUA (mixed, 2'-OMe A/G/U, 2'-deoxy C, 3' idT) [ARC33121], the binding signal is ≤ 5 fold IC50 of ARC17480. As for GGAUAUACUUGGCUCGUUAGGUGCGUAUAUA (mixed, 2'-OMe A/G/U, 2'-deoxy C, 3' idT) [ARC33120], the binding signal was ≤ 5 fold IC50 of ARC17480.

For the next data set, the target named is T1, TFPI (tissue factor pathway inhibitor, …). The experiment in a line: competition; fails binding-competition criterion. To be noted: tags: American Diagnostica 4500PC/4900PC, E. coli expressed. As for the experimental part:
as §1
Take GGAAUAUACUUCUCGUUAGGUGCGUAUAUA (mixed, 2'-OMe A/G/U, 2'-deoxy C, 3' idT) [ARC33146]: the binding signal was > 5 fold IC50 of ARC17480.

As for GGAAUAUACUUGGCUCGAGGUGCGUAUAUA (mixed, 2'-OMe A/G/U, 2'-deoxy C, 3' idT) [ARC33147], the binding signal is > 5 fold IC50 of ARC17480. Turning to GGAAUAUACUUGGCUCGUUAGGUGCGAUAUA (mixed, 2'-OMe A/G/U, 2'-deoxy C, 3' idT) [ARC33139], the binding signal was > 5 fold IC50 of ARC17480.

Consider GGAAUAUACUUGGCUCGUUAGGUGCGUUAUA (mixed, 2'-OMe A/G/U, 2'-deoxy C, 3' idT) [ARC33140], for which the binding signal was > 5 fold IC50 of ARC17480. On to GGAAUAUACUUGGCUCGUUAUGCGUAUAUA (mixed, 2'-OMe A/G/U, 2'-deoxy C, 3' idT) [ARC33148], for which the binding signal is > 5 fold IC50 of ARC17480. Regarding GGAAUAACUUGGCUCGUUAGGUGCGUAUAUA (mixed, 2'-OMe A/G/U, 2'-deoxy C, 3' idT) [ARC33123], the binding signal is > 5 fold IC50 of ARC17480. As for GGAAUAUACUGGCUCGUUAGGUGCGUAUAUA (mixed, 2'-OMe A/G/U, 2'-deoxy C, 3' idT) [ARC33126], the binding signal is > 5 fold IC50 of ARC17480. Still for that read-out and setting: next, GGAAUAUAUUGGCUCGUUAGGUGCGUAUAUA (mixed, 2'-OMe A/G/U, 2'-deoxy C, 3' idT) [ARC33125]: > 5 fold IC50 of ARC17480; GGAAUAUCUUGGCUCGUUAGGUGCGUAUAUA (mixed, 2'-OMe A/G/U, 2'-deoxy C, 3' idT) [ARC33124]: > 5 fold IC50 of ARC17480. As for GGAAUAUACUUGCUCGUUAGGUGCGUAUAUA (mixed, 2'-OMe A/G/U, 2'-deoxy C, 3' idT) [ARC33127], the binding signal is > 5 fold IC50 of ARC17480. Turning to GGAAUAUACUUGGCCGUUAGGUGCGUAUAUA (mixed, 2'-OMe A/G/U, 2'-deoxy C, 3' idT) [ARC33129], the binding signal was > 5 fold IC50 of ARC17480. In the case of GGAAUAUACUUGGUCGUUAGGUGCGUAUAUA (mixed, 2'-OMe A/G/U, 2'-deoxy C, 3' idT) [ARC33128], the binding signal was > 5 fold IC50 of ARC17480. For GGAAUAUACUUGGCUGUUAGGUGCGUAUAUA (mixed, 2'-OMe A/G/U, 2'-deoxy C, 3' idT) [ARC33130], the binding signal is > 5 fold IC50 of ARC17480. Consider GGAAUAUACGGCUCGUUAGGUGCGUAUAUA (mixed, 2'-OMe A/G/U, 2'-deoxy C, 3' idT) [ARC33145], for which the binding signal was > 5 fold IC50 of ARC17480. On to GGAAUAUACUUGGCUCGUUAGGGCGUAUAUA (mixed, 2'-OMe A/G/U, 2'-deoxy C, 3' idT) [ARC33135], for which the binding signal is > 5 fold IC50 of ARC17480.

For the molecule GGAAUAUACUUGGCUCGUUAGGUCGUAUAUA (mixed, 2'-OMe A/G/U, 2'-deoxy C, 3' idT) [ARC33136], the binding signal is > 5 fold IC50 of ARC17480.

With GGAAUAUACUUGGCUCGUUAGGUGGUAUAUA (mixed, 2'-OMe A/G/U, 2'-deoxy C, 3' idT) [ARC33137], the binding signal was > 5 fold IC50 of ARC17480. On the same count and under the same terms, to GGAAUAUACUUGGCUCGUUAGGUGCUAUAUA (mixed, 2'-OMe A/G/U, 2'-deoxy C, 3' idT) [ARC33138] belongs > 5 fold IC50 of ARC17480. In the case of GGAAUAUACUUGGCUCUUAGGUGCGUAUAUA (mixed, 2'-OMe A/G/U, 2'-deoxy C, 3' idT) [ARC33131], the binding signal was > 5 fold IC50 of ARC17480. On to GGAAUAUACUUGGCUCGUUAGUGCGUAUAUA (mixed, 2'-OMe A/G/U, 2'-deoxy C, 3' idT) [ARC33134], for which the binding signal is > 5 fold IC50 of ARC17480. For the molecule GGAAUAUACUUGGCUCGUUGGUGCGUAUAUA (mixed, 2'-OMe A/G/U, 2'-deoxy C, 3' idT) [ARC33133], the binding signal was > 5 fold IC50 of ARC17480.

The next data set shares this target. The experiment in a line: competition; fails binding-competition criterion. As to conditions: tags: American Diagnostica 4500PC/4900PC, E. coli expressed. This is another data set of the same source. The protocol:
The substituted ARC17480 molecules were assayed for binding and function. The assays used for this evaluation were the calibrated automated thrombogram (CAT) assay, a dot-blot binding-competition assay and a FXa activity assay. The results of these assays are summarized in Table 40 and depicted in FIG. 147. A mutation was considered tolerated for activity if it met the criteria of at least two of the three assays that were carried out. Mutations that are tolerated (“yes”) and not tolerated (“no”) are identified in Table 40. The experimental details and the criteria used for each assay are described in the following paragraphs. The molecules described in this example were first tested in the CAT assay and the dot-blot binding-competition assay. In most cases, molecules were only tested in the FXa assay if there was a discrepancy between the results in the CAT assay and the dot-blot binding-competition assay.
Each molecule was evaluated for binding to tissue factor pathway inhibitor (TFPI) in a binding-competition assay. For these experiments, 10 nM human TFPI (American Diagnostica, Stamford, Conn., catalog #4900PC) was incubated with trace amounts of radiolabeled ARC17480 and 5000 nM, 1666.67 nM, 555.56 nM, 185.19 nM, 61.73 nM, 20.58 nM, 6.86 nM, 2.29 nM, 0.76 nM or 0.25 nM of unlabeled competitor aptamer. ARC17480 was included as a competitor in every experiment as a control. For each molecule, the percentage of radiolabeled ARC17480 bound at each competitor aptamer concentration was used for analysis. The percentage of radiolabeled ARC17480 bound was plotted as a function of aptamer concentration and fit to the equation y=(max/(1+x/IC₅₀))+int, where y=the percentage of radiolabeled ARC17480 bound, x=the concentration of aptamer, max=the maximum radiolabeled ARC17480 bound, and int=the y-intercept, to generate an IC₅₀ value for binding-competition. The IC₅₀ of each aptamer was compared to the IC₅₀ of ARC17480 that was evaluated in the same experiment. A mutation was considered tolerated in the binding-competition assay if the IC₅₀ of that molecule was not more than 5-fold greater than that of ARC17480 evaluated in the same experiment. Tolerated mutations are indicated in Table 40 as meeting the assay criteria (“yes”) or not meeting the assay criteria (“no”).
Regarding GGAAUAUACUUGGCUTGUUAGGUGCGUAUAUA (mixed, 2'-OMe A/G/U, dT16, 2'-deoxy C, 3' idT) [ARC33164], the binding signal is > 5 fold IC50 of ARC17480.

Turning to GGAAUAAACUUGGCUCGUUAGGUGCGUAUAUA (mixed, 2'-OMe A/G/U, 2'-deoxy C, 3' idT) [ARC34868], the binding signal was > 5 fold IC50 of ARC17480.

As for GGAAUAUACUUGGCUCGUUAGGUGCUUAUAUA (mixed, 2'-OMe A/G/U, 2'-deoxy C, 3' idT) [ARC33174], the binding signal was > 5 fold IC50 of ARC17480. Consider GGAAUAUACUUUGCUCGUUAGGUGCGUAUAUA (mixed, 2'-OMe A/G/U, 2'-deoxy C, 3' idT) [ARC33160], for which the binding signal was > 5 fold IC50 of ARC17480.

For the molecule GGAAUAUACUCGGCUCGUUAGGUGCGUAUAUA (mixed, 2'-OMe A/G/U and mC11, other C 2'-deoxy, 3' idT) [ARC33159], the binding signal was > 5 fold IC50 of ARC17480.

For the molecule GGAAUAUATUUGGCUCGUUAGGUGCGUAUAUA (mixed, 2'-OMe A/G/U, dT9, 2'-deoxy C, 3' idT) [ARC33157], the binding signal was > 5 fold IC50 of ARC17480. On to GGAAUAUACUUGGCUCGUUAGGUGCGCAUAUA (mixed, 2'-OMe A/G/U and mC27, other C 2'-deoxy, 3' idT) [ARC33175], for which the binding signal is > 5 fold IC50 of ARC17480. On to GGAAUAUACUUGGCCCGUUAGGUGCGUAUAUA (mixed, 2'-OMe A/G/U and mC15, other C 2'-deoxy, 3' idT) [ARC33163], for which the binding signal was > 5 fold IC50 of ARC17480. On to GGAAUAUACUUGGCUCGUUAGUUGCGUAUAUA (mixed, 2'-OMe A/G/U, 2'-deoxy C, 3' idT) [ARC33170], for which the binding signal was > 5 fold IC50 of ARC17480. With GGAAUAUACUUGGCUCGUUAGGUUCGUAUAUA (mixed, 2'-OMe A/G/U, 2'-deoxy C, 3' idT) [ARC33172], the binding signal is > 5 fold IC50 of ARC17480. Take GGAAUAUACUUGUCUCGUUAGGUGCGUAUAUA (mixed, 2'-OMe A/G/U, 2'-deoxy C, 3' idT) [ARC33161]: the binding signal is > 5 fold IC50 of ARC17480. As for GGAAUAUACUUGGCUCUUUAGGUGCGUAUAUA (mixed, 2'-OMe A/G/U, 2'-deoxy C, 3' idT) [ARC33165], the binding signal was > 5 fold IC50 of ARC17480.

As to GGAAUAUACUUGGCUCGUUUGGUGCGUAUAUA (mixed, 2'-OMe A/G/U, 2'-deoxy C, 3' idT) [ARC33168], the binding signal is > 5 fold IC50 of ARC17480. Still for that read-out and setting: to GGAAUAGACUUGGCUCGUUAGGUGCGUAUAUA (mixed, 2'-OMe A/G/U, 2'-deoxy C, 3' idT) [ARC34869] belongs > 5 fold IC50 of ARC17480; to GGAAUAUACUUGGCUCGUUAGGCGCGUAUAUA (mixed, 2'-OMe A/G/U and mC23, other C 2'-deoxy, 3' idT) [ARC33171], > 5 fold IC50 of ARC17480; to GGAAUAUACUUGGCUCGUUAGGUGTGUAUAUA (mixed, 2'-OMe A/G/U, dT25, 2'-deoxy C, 3' idT) [ARC33173], > 5 fold IC50 of ARC17480.

As for GGAAUAUACUUGGCUCGUUAGGUGCGUUUAUA (mixed, 2'-OMe A/G/U, 2'-deoxy C, 3' idT) [ARC33176], the binding signal is > 5 fold IC50 of ARC17480.
